The target of series [1] is cardiac troponin I (cTnI) (human, UniProt P19429 2-210). The experiment in a line: SPR (transmitted, EOT peak shift); PBS; LOD 0.079 ng/mL; Aptamer immobilized on gold nanoledge chip (cystamine/glutaraldehyde, PEG and glycine blocked); PBS, human serum or whole blood; 20 min incubation; room temperature (stated for stability test); pH and salt not given. Particulars: protein: commercial.

Another series concerns the target T1, myoglobin (UniProt P02144 2-154).
T1 sequence: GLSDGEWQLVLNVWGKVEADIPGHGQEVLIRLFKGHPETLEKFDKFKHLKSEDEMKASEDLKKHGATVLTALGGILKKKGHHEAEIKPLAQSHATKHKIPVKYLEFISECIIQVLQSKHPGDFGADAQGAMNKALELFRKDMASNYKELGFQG
The experiment in a line: SPR (transmitted, EOT peak shift); up to 125 ng/mL; minimal shift, described as poor binding; human serum (Methods) or PBS (Fig S8); Aptamer immobilized on gold nanoledge chip (cystamine/glutaraldehyde, PEG and glycine blocked); PBS, human serum or whole blood; 20 min incubation; room temperature (stated for stability test); pH and salt not given. The conditions noted are these: protein: commercial.

cardiac troponin I (cTnI), sequence (P19429 2-210): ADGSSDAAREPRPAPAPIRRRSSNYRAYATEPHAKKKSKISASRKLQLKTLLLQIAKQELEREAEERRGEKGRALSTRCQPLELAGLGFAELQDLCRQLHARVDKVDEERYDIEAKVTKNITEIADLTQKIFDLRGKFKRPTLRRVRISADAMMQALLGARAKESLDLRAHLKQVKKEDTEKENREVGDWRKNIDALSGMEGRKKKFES

As for CGTGCAGTACGCCAACCTTTCTCATGCGCTGCCCCTCTTA (ssDNA, 5' amino modifier C6 (5AmMC6)) [cTnI-specific aptamer], the binding result in series [1] is given as “binds”; with myoglobin, “no binding”.

These data come from publication PMC11406491, “A Plasmonic Nanoledge Array Sensor for Selective Detection of Cardiovascular Disease Biomarkers in Human Whole Blood”.
